The target of series [1] is T1, CYP3A4 (Homo sapiens, UniProt P08684).
Another series deals with T2, CYP 2C8 (Homo sapiens, UniProt P10632).
T2 sequence (P10632 1-490): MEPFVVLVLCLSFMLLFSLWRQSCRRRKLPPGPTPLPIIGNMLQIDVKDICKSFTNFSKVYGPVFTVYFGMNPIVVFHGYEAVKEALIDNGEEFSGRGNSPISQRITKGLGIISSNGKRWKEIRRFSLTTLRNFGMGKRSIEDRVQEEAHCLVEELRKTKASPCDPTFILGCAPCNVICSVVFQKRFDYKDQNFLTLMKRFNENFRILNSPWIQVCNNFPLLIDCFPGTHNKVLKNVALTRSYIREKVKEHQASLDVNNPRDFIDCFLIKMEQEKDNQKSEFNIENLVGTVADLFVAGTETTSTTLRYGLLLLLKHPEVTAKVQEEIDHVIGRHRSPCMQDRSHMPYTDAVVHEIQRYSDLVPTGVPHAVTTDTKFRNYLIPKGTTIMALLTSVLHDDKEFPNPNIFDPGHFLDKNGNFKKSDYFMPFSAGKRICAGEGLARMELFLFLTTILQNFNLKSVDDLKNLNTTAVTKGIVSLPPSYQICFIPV
As to the kind of experiment: Kinetic properties of fluorescein-based fluorogenic substrates with CYP 2C8. The class given is biochemical. The settings on record: for v (1.25 uM): turnover rate at 1.25 uM substrate; for v (1.25 uM) / v (10 uM): 100 mM K+ phosphate buffer, pH 7.5; for v (10 uM): turnover rate at 10 uM substrate. The procedure: (§1) Dibenzylfluorescein (DBF) was purchased form Gentest, Woburn, Mass. […] DBF, BOMF and DBOMF were diluted from a stock solution of 2 mM in acetonitrile to a 4×concentration of 80 μM in 100 mM K+ phosphate buffer. Seven 1:2 dilutions were made of each substrate of which 25 μl was added to the appropriate wells. […] The cytochrome P450 isozyme CYP3A4 was diluted to give a 0.5 pmol enzyme per well and added in a volume of 10 μl/well in K+ phosphate, pH 8.0. Enzymatic conversion of the substrate to products was allowed to proceed for 1 hour with fluorescence reads taken every four minutes on a fluorescence microtiter plate reader. The solution was illuminated using an 485/20 nm excitation filter and fluorescence emission was detected through a 530/25 nm the emission filter.
In deviation from the protocol described in Example 32, the phosphate-based buffer (100 mM K+ phosphate, pH 8.0) was replaced throughout the procedure by 100 mM K+ phosphate buffer, pH 7.5. […] Specifically, the substrate dibenzylfluorescein (DBF) (purchased form Gentest, Woburn, Mass.) and the sensor of the present invention DBOMF were tested for activity with CYP 2C8.

Series [2] addresses T1, CYP3A4. As to the kind of experiment: Kinetic properties of fluorescein-based fluorogenic substrates with CYP 3A4. In kind it is biochemical. The settings on record: for K1/2max: concentration at 1/2 maximal velocity for sigmoidal kinetics; for vmax: for sigmoidal kinetics; for v (1.25 uM): turnover rate at 1.25 uM substrate; for v (1.25 uM) / v (10 uM): 100 mM K+ phosphate, pH 8.0; for v (10 uM): turnover rate at 10 uM substrate. As to the method: as §1

In series [3] the target is T1, CYP3A4. As to the kind of experiment: in vitro. The settings on record: pH 8, % inhibition, 10 μM drug; for inhibition at 20 min, 10 µM: Condition A, 20 min pre-incubation without NADP+ (no enzyme turnover), relative to 10 μM clotrimazole control; for inhibition at 40 min, 10 µM: Condition B, 40 min pre-incubation with NADP+ (enzyme turnover), relative to 10 μM ellipticine control.

Substrate in series [4]: CCOc1ccc2cc(C#N)c(=O)oc2c1
As to the kind of experiment: Kinetic properties of fluorogenic substrates with CYP 1A2. The class given is biochemical, human.

Substrate in series [5]: CCOCOc1ccc2cc(C#N)c(=O)oc2c1
Described as above. The class given is biochemical, human.

Substrate in series [6]: CCN(CC)Cc1cc(=O)oc2cc(OC)ccc12
As to the kind of experiment: Kinetic properties of fluorogenic substrates with CYP 2C19. The class given is biochemical, human. As to conditions: other: — = too low to quantify.

Substrate in series [7]: N#Cc1cc2ccc(OCOCc3ccccc3)cc2oc1=O
The description is as above. In kind it is biochemical, human. The settings on record: other: — = too low to quantify.

Substrate in series [8]: CCCCCCCCOCOc1ccc2nc3ccc(=O)cc-3oc2c1
Described as above. In kind it is biochemical, human. The settings on record: other: — = too low to quantify.

Substrate in series [9]: N#Cc1cc2ccc(OCc3ccccc3)cc2oc1=O
Described as above. In kind it is biochemical, human. The settings on record: other: — = too low to quantify.

Substrate in series [10]: COCOc1ccc2cc(C#N)c(=O)oc2c1
Described as above. In kind it is biochemical, human. The settings on record: other: — = too low to quantify.

Substrate in series [11]: CC(C)Oc1ccc2cc(C#N)c(=O)oc2c1
The description is as above. The settings on record: other: — = too low to quantify. The class given is biochemical, human.

Substrate in series [12]: CCCCCCCCOCOc1ccc2cc(C#N)c(=O)oc2c1
The description is as above. As to conditions: other: — = too low to quantify. The class given is biochemical, human.

Substrate in series [13]: CCOc1ccc2cc(C#N)c(=O)oc2c1
The description is as above. As to conditions: other: — = too low to quantify. In kind it is biochemical, human.

Substrate in series [14]: CCOCOc1ccc2cc(C#N)c(=O)oc2c1
Described as above. In kind it is biochemical, human. As to conditions: other: — = too low to quantify.

Read-outs that look alike come from different tables or passages of the source.

T1 sequence (P08684 whole entry): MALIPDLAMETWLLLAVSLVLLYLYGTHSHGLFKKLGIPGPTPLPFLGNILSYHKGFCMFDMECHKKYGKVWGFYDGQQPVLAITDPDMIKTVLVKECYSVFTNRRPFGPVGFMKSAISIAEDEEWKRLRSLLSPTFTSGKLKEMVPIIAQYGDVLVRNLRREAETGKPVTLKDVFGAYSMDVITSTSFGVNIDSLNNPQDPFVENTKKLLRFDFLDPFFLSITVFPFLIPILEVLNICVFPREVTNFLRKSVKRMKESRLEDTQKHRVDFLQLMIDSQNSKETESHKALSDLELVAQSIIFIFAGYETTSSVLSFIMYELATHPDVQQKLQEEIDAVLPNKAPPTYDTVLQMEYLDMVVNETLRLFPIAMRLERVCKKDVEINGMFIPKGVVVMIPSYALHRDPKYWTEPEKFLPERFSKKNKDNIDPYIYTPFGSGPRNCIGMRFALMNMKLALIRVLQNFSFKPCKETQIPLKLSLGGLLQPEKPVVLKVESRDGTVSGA

In the case of `CCCCc1oc2ccccc2c1C(=O)c1cc(I)c(OCCN(CC)CC)c(I)c1` [Amiodarone], at CYP3A4 [1], the “metabolism-dependent inhibitory activity against the CYP3A4 isozyme” value (“metabolism-dependent inhibitory activity” below) is listed as “at least partial metabolism-dependent inhibitory activity”.

As for `O=C(OCc1ccccc1)c1ccccc1-c1c2ccc(=O)cc-2oc2cc(OCc3ccccc3)ccc12` [DBF, Dibenzylfluorescein, reference compound], at CYP 2C8, the type of kinetics result is “MichaelisMenten”, the “v (1.25 uM)” value came to 0.16 min⁻¹ and the “v (10 uM)” value was determined as 0.37 min⁻¹. In addition, on CYP3A4 [2], the type of kinetics entry is recorded as “sigmoidal”, the K1/2max was found to be 0.80 µM, the vmax was found to be 4.30 min⁻¹ and the “v (1.25 uM)” value is 3.27 min⁻¹. The “v (10 uM)” value at CYP3A4 [2] is 4.40 min⁻¹.

In the case of `O=C(OCOCc1ccccc1)c1ccccc1-c1c2ccc(=O)cc-2oc2cc(OCOCc3ccccc3)ccc12` [DBOMF, Dibenzyloxymethylfluorescein], at CYP 2C8, the type of kinetics result was “MichaelisMenten”, the “v (1.25 uM)” value was determined as 0.55 min⁻¹ and the “v (10 uM)” value turned out to be 1.54 min⁻¹. At CYP3A4 [2], the type of kinetics result was “sigmoidal”, the K1/2max came to 1.50 µM, the vmax was 16.00 min⁻¹ and the “v (1.25 uM)” value stood at 6.00 min⁻¹. For the same molecule, at CYP3A4 [2], the “v (10 uM)” value was determined as 15.50 min⁻¹.

One may read the inhibition as the change of the read-out against control, counted positive when it falls. The low end stands for a response near the control, the high end for a response far below the control. With `Cc1c2ccncc2c(C)c2c1[nH]c1ccccc12` [Ellipticine], the “metabolism-dependent inhibitory activity” value on CYP3A4 [1] (indicated by data for DBOMF) is listed as “at least partial metabolism-dependent inhibitory activity”. Moreover, the inhibition at 20 min, 10 µM at CYP3A4 [3] (substrate BOMCC) came out at 92%; on CYP3A4 [3] (substrate BOMR), 97%; against CYP3A4 [3] (substrate DBOMF), 40%. For the same molecule, the inhibition at 40 min, 10 µM against CYP3A4 [3] (substrate BOMCC), against CYP3A4 [3] (substrate BOMR) and against CYP3A4 [3] (substrate DBOMF) was 100% in each case.

On to `COc1ccc(Cc2nccc3cc(OC)c(OC)cc23)cc1OC` [Papaverine], for which, on CYP3A4 [1] (indicated by data for DBOMF), the “metabolism-dependent inhibitory activity” value is reported as “at least partial metabolism-dependent inhibitory activity”. In addition, the inhibition at 20 min, 10 µM against CYP3A4 [3] (substrate BOMCC) was found to be 34%; on CYP3A4 [3] (substrate BOMR) it was 69%; against CYP3A4 [3] (substrate DBOMF) it was 48%. Besides, the inhibition at 40 min, 10 µM on CYP3A4 [3] (substrate BOMCC) came out at 99%; on CYP3A4 [3] (substrate BOMR), 92%; on CYP3A4 [3] (substrate DBOMF), 90%.

B1: CYP 1A2 (Homo sapiens) (protein)
chain: MALSQSVPFSATELLLASAIFCLVFWVLKGLRPRVPKGLKSPPEPWGWPLLGHVLTLGKNPHLALSRMSQRYGDVLQIRIGSTPVLVLSRLDTIRQALVRQGDDFKGRPDLYTSTLITDGQSLTFSTDSGPVWAARRRLAQNALNTFSIASDPASSSSCYLEEHVSKEAKALISRLQELMAGPGHFDPYNQVVVSVANVIGAMCFGQHFPESSDEMLSLVKNTHEFVETASSGNPLDFFPILRYLPNPALQRFKAFNQRFLWFLQKTVQEHYQDFDKNSVRDITGALFKHSKKGPRASGNLIPQEKIVNLVNDIFGAGFDTVTTAISWSLMYLVTKPEIQRKIQKELDTVIGRERRPRLSDRPQLPYLEAFILETFRHSSFLPFTIPHSTTRDTTLNGFYIPKKCCVFVNQWQVNHDPELWEDPSEFRPERFLTADGTAINKPLSEKMMLFGMGKRRCIGEVLAKWEIFLFLAILLQQLEFSVPPGVKVDLTPIYGLTMKHARCEHVQARLRFSIN
One may read the Km as the substrate concentration at which the rate is half of its maximum. As a reminder, the kcat is the number of substrate molecules converted per active site and unit of time at saturation. A word on the kcat/Km: it is the second-order rate constant that governs catalysis at low substrate concentration. On to B1, for which, in series [4], the Km worked out at 26.0 µM, the kcat was found to be 0.733 s⁻¹ and the kcat/Km was determined as 28200 M⁻¹ s⁻¹. In [5], the Km stood at 11.0 µM, the kcat came to 0.35 s⁻¹ and the kcat/Km worked out at 31800 M⁻¹ s⁻¹.

B2: CYP 2C19 (Homo sapiens) (protein)
chain: MDPFVVLVLCLSCLLLLSIWRQSSGRGKLPPGPTPLPVIGNILQIDIKDVSKSLTNLSKIYGPVFTLYFGLERMVVLHGYEVVKEALIDLGEEFSGRGHFPLAERANRGFGIVFSNGKRWKEIRRFSLMTLRNFGMGKRSIEDRVQEEARCLVEELRKTKASPCDPTFILGCAPCNVICSIIFQKRFDYKDQQFLNLMEKLNENIRIVSTPWIQICNNFPTIIDYFPGTHNKLLKNLAFMESDILEKVKEHQESMDINNPRDFIDCFLIKMEKEKQNQQSEFTIENLVITAADLLGAGTETTSTTLRYALLLLLKHPEVTAKVQEEIERVIGRNRSPCMQDRGHMPYTDAVVHEVQRYIDLIPTSLPHAVTCDVKFRNYLIPKGTTILTSLTSVLHDNKEFPNPEMFDPRHFLDEGGNFKKSNYFMPFSAGKRICVGEGLARMELFLFLTFILQNFNLKSLIDPKDLDTTPVVNGFASVPPFYQLCFIPV
Regarding B2, the Km in [6] came to 8.5 µM; in series [7], 14.0 µM; in series [8], 0.7 µM; in [9] it was 6.4 µM; in [10], 3.2 µM; in series [11] it was 57.2 µM. Further, the Michaelis constant (Km) in [12] was 6.9 µM; in [13] it was 41.0 µM; in series [14] it was 16.6 µM. Further, the kcat in series [6] amounted to 0.0067 s⁻¹; in series [7] it was 0.0317 s⁻¹; in [8], 0.00283 s⁻¹; in series [9], 0.00167 s⁻¹; in [10] it was 0.00833 s⁻¹; in series [11] it was 0.0325 s⁻¹. In addition, the results for the kcat in series [12], in [13] and in [14] were 0.0283 s⁻¹, 0.0283 s⁻¹ and 0.095 s⁻¹, respectively. For the same molecule, the kcat/Km in series [6] is 784 M⁻¹ s⁻¹; in series [7], 2260 M⁻¹ s⁻¹; in series [8], 4048 M⁻¹ s⁻¹; in [9] it was 234 M⁻¹ s⁻¹; in [10] it was 2060 M⁻¹ s⁻¹; in [11], 568 M⁻¹ s⁻¹. Further, the kcat/Km came out at 4106 M⁻¹ s⁻¹ in series [12], 671 M⁻¹ s⁻¹ in series [13] and 5720 M⁻¹ s⁻¹ in [14].
